Results taken from the DeepSol protein solubility set.

assay: soluble on expression in E. coli; label from the status in PepcDB or PDB records

| Sequence | soluble on expression in E. coli |
| --- | --- |
| AIANNSHTGFVGEMFGSSDILRSVSIPSEADKPMIVELAVAAMEELVRMAQTGDPLWVSSDNSVEILNEEEYFRTFPRGIGPKPIGLRSEASRESTVVIMNHINLIEILMDVNQWSSVFCGIVSRALTLEVLSTGVAGNYNGALQVMTAEFQVPSPLVPTRENYFVRYCKQHSDGIWAVVDVSLDSLRPSPITRSRRRPSGCLIQELQNGYSKVTWVEHIEVDDRSVHNMYKPLVNTGLAFGAKRWVATLDRQCERLASSMASNIPACDLSVITSPEGRKSMLKLAERMVMSFCTGVGASTAHAWTTLSTTGSDDVRVMTRKSV | soluble |
| MGSDKIHHHHHHQIPREPITQQPMSAMPPMPPAMQAPGSIYNPGYAGRPLFEDQRPRNVGDILTIVIAENINATKSSGANTNRQGNTSFDVPTAGFLGGLFNKANLSAQGANKFAATGGASAANTFNGTITVTVTNVLPNGNLVVSGEKQMLINQGNEFVRFSGIVNPNTISGQNSVYSTQVADARIEYSAKGYINEAETMGWLQRFFLNIAPW | not soluble |
| MEQVVIVDAIRTPMGRSKGGAFRNVRAEDLSAHLMRSLLARNPSLTAATLDDIYWGCVQQTLEQGFNIARNAALLAEIPHSVPAVTVNRLCGSSMQALHDAARMIMTGDAQVCLVGGVEHMGHVPMSHGVDFHPGLSRNVAKAAGMMGLTAEMLSRLHGISREMQDQFAARSHARAWAATQSGAFKTEIIPTGGHDADGVLKQFNYDEVIRPETTVEALSTLRPAFDPVSGTVTAGTSSALSDGAAAMLVMSESRARELGLKPRARIRSMAVVGCDPSIMGYGPVPASKLALKKAGLSASDIDVFEMNEAFAAQILPCIKDLGLMEQIDEKINLNGGAIALGHPLGCSGARISTTLINLMERKDAQFGLATMCIGLGQGIATVFERV | soluble |
| MAHHHHHHMSGSVNRSNSFQKADSMDAKETSTVDRKWVALTAYQPVDVVTKTVEVPVIKTVEKFVPKTIIQEKIIHVPKNVTHIVEKIVEVPEVKYIEKIVEVPHIHYKNKYVPKIEVVEKVVERQKIIEKWHDKIVEVPQIKEVVRFKEIEDAEEVIKYIPRNSKNINWEEEYQKYTQRKGQERYSLDNNAYQQKMSSYNDYNEKAYSQNAYSRSLDFMNKQSSSLNNQSNIRSEDFSQINFFNQYIGSAGASYDKQRNSVPTSSFDARGSLQLKRMPSEEAKPVGCCTSACT | not soluble |
| MSEVTDLTVIEIKPEQAPVLYVAGGLDAYLEQIRQAVNEVPDLSTKKGRDRVASLAAQVSRSKTAIEKPGREYLKRLKEAVRPAEAEIKRFVDACDELRDATRRPLTEWEAEQERIKAEEAMNALHAEALEMNIKFDQELAAKFEADHEMALLMNKDFDRDREEQRRLAEQARREHEERIKREAAEQARRDAEAKHKAEIEAAARREAEEKARAELAERQRIEAEQRAEREKKETEERARREKEEAVAAERRRQEEAEAARLVEEQRKAEEEARRAADKEHRRTVNRRVYADLIAQGIPEEYAQKAVLAIAGGKVQDAHIKY | not soluble |
| MTEVLIKVDLNQPVTENEQIHNRWHPDIPMACWVKPGEDFILETYDWTAGAIKNNDDASDVRDVDLSTVHYLSGPVGVHGAEPGDLLVVDLLDIGARADSQWGFNGFFSRQNGGGFLTDHFPMAQKAIWDFKGMMTSSRHIPGVEFAGLIHPGLIGCLPDHKMLAEWNRREQELIDTDPGRVPPLANPPHAKTAHLGKMKGGPERDLAAATGARTVPPREHGGNCDIKDLSRGSKVFFPVYVDGAGLSVGDLHFSQGDGEITFCGAIEMAGWVHMRVELIKGGMAKYGIKNPVFKPSPIVPTYNKYLIFEGISVDESGQQHYLDVNVAYRQACLNAINYMTKFGYSPAQGYALLGSAPVQGHISGIVDIPNACATLWLPTEIFKFDINPNADGPTRFIDGSIDLPIAPDKLEHHHHHH | not soluble |
| MGSDKIHHHHHHMSSSAPIDYAALADRIHTWGRELGFQQVGITDTDLAAHERYLERWLAAGYHGEMHFMAKHGSKRTRPEELVPGTLRVVSVRMDYLPPEVETTKVLGQPERAYISRYALGRDYHKLIRKRLATLAKRIEDEVGAYGYRAFVDSAPVMERALAQKAGLGWFGKNAMLLNPQAGSLFFLGELYTDLPLPVDAPFDSEHCGKCSRCQTACPTGAIVDDKVIDSRRCISYLTIELAGSIPEEYREAMGNRVYGCDDCQLVCPFTRFTRVSREDDFAPRHDLDRASLVRLFAWSEEEFLARTEGSAIRRIGYERWLRNLAIGLGNAPWSDQVESALRARLAYPSDLVREHVRWGLEQQRRKRERRIASDVDAPAAPERSA | not soluble |
| MGSSHHHHHHSSGRENLYFQGVLGAGCIGGSIALKLKEKHHVTAFDRDEETMKALEENGIETVSKESDLYDTDLLVLALPMSVEERFLKETDFSGKILDVASVKTPFMEIARERGLNFTGGHPMAGNERKGKSGWDREMFDGKIFFLCSLDGKEDGMIENIVKDLGARPLWIDYRIHDEIVAAVSHVQYLISLSARYVGKPFEEYAGPGYLSNTRLSKQNMEMALDMIRYNKENILKYLENARNFLNVLYHLTEKEDFENLKKVIREVI | soluble |
| MGSDKIHHHHHHMPQTAFIWDLDGTLIDSYEAIMEALAVTYRTFGFDFQAEPIRRYIIKESVGKLLDILAKQHGLSSEELKTFFIQEQVKRDDKIKLMPFAKEALQWAKDRGIKQFMYTHKGASTGAVLAELGIVSYFTEILTSVSGFERKPHPQGIFYLLEKYHLDRDRTYYIGDRRLDVEVAENAGIKSINLAQPQSAANQKIDNLQVLTQLKDF | not soluble |
| GPNSGTLALLLDEGSKQLPQAIIIGVKKGGTRALLEFLRVHPDVRAVGAEPHFFDRSYDKGLAWYRDLMPRTLDGQITMEKTPSYFVTREAPARISAMSKDTKLIVVVRDPVTRAISDYTQTLSKRPDIPTFESLTFKNRTAGLIDTSWSAIQIGIYAKHLEHWLRHFPIRQMLFVSGERLISDPAGELGRVQDFLGLKRIITDKHFYFNKTKGFPCLKKAEGSSRPHCLGKTKGRTHPEIDREVVRRLREFYRPFNLKFYQMTGHDFGWDG | soluble |
| MRNILKATTLENKFPLFTVENGCIVSKDADITVAFRVELPELFTVTAAEYEAIHSAWNKAVKVLPDYSIVHKQDWFIKENYAPDIQKDDLSFLSRSFERHFNERPFLNHTCYLFLTKTTKEHSRMQSNFSTLCRGFLVPKEIRDRETVTKFLEAVGQFESIMNDSGFITLTRLSSDEITGTRETAGIVEKYFSLSQTDTTTLKDISLGADEMKIGDNILCLHTLSDAEDMPGKVGTDTRYEKLSTDRSDCRLSFASPVGVLLSCNHIYNQYIFIDDHTENLKQFEKMARNMHSLSKYSRANQINKSWIEEYLNEAHSQGLISVRCHCNIMAWSDDRDELKHIKNDVGSQLALMECKPRHNTTDTPTLFWAGIPGNQADFPAEESFYTFIEQALCLFTEETNYKSSLSPFGIKMVDRVTGKPLHIDISDLPMKRGIITNRNKFILGPSGSGKSFFTNHMVRQYYEQNAHVLLVDTGNSYLGLCEMINRKTHGEDGIYFTYTTENPIAFNPFYVEDGVFDIEKKESIKTLILTLWKRDDEAPTRAEEVALSNAVSSYIGLITKDCSVTPCFNTFYEYVRNDYRAHLQEKNVREKDFDIDNFLNVLEPYYKGGEYDYLLNSDKELDLLHKRFIVFELDNIKDHKILFPITTIIIMEVFINKMRKLKGIRKLILIEEAWKAIASANMADYIKYLYKTVRKYFGEAIVVTQEVEDIISSPIVKESIINNSDCKILLDQRKYLNKFDSIQNLLGLTDKERSQVLSINLANHPNRKYKEVWIGLGGTQSAVYATEVSLDEYFTYTTEETEKMELFALSEKLGGNLELAIKRLAESKRNPEK | not soluble |
| NLSELTPYILCSICKGYLIDATTITECLHTFCKSCIVRHFYYSNRCPKCNIVVHQTQPL | soluble |
